From article PMC9646525, “Cryo-EM structure of the SEA complex” (Nature, 2022) come the findings set out here.

The assay deals with T1, Sea4-TAP (S. cerevisiae (endogenous in yeast …, UniProt P38164 1-1038)).
T1 construct: Sea4, S. cerevisiae, endogenous subunit of the SEAC (SEACAT, core), TAP-tagged; Captured by the TAP tag on IgG beads; the complex was released with TEV protease before SDS-PAGE and cryo-EM; Written 'Sea4-TAP'; Four copies in the SEAC; source: endogenous, yeast cells expressing Sea4-TAP; in lysate, purified on IgG-coupled Dynabeads and eluted with TEV protease
T1 sequence (looked up): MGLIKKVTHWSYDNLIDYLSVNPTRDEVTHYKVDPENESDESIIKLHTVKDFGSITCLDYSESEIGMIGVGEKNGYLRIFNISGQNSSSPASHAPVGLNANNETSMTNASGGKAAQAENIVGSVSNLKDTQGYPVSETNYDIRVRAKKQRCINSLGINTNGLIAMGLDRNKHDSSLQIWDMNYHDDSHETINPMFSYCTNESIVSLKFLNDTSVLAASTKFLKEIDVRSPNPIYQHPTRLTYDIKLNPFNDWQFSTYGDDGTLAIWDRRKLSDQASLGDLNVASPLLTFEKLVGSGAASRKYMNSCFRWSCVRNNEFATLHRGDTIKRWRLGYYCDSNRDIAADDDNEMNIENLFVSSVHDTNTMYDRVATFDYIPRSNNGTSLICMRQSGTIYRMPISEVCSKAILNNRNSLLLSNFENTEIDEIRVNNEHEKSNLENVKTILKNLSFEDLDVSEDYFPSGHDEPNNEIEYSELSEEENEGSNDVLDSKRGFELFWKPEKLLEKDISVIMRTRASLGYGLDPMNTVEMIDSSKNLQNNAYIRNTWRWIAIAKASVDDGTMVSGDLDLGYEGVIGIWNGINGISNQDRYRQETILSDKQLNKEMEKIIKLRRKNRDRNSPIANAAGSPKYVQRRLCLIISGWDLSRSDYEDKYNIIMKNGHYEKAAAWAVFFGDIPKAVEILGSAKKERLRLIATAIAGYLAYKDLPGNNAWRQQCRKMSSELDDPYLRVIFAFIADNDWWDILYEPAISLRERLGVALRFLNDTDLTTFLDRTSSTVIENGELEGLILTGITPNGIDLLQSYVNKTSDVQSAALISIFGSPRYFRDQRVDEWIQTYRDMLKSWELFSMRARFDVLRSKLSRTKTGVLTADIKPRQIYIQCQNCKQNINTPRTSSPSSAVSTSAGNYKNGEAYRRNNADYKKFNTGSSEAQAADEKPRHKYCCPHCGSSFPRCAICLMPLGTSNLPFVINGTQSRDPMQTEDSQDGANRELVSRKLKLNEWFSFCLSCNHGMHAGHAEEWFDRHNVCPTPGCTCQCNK
As to the kind of experiment: cryo-EM structure; endogenous SEAC purified from yeast via Sea4-TAP (IgG Dynabeads, TEV elution in 20 mM HEPES-NaOH pH 7.4, 300 mM NaCl, 2 mM DTT), on graphene-oxide-coated grids. To be noted: both partners purified.

B1: Seh1 (natural protein, UniProt P53011 1-349, looked up)
chain: MQPFDSGHDDLVHDVVYDFYGRHVATCSSDQHIKVFKLDKDTSNWELSDSWRAHDSSIVAIDWASPEYGRIIASASYDKTVKLWEEDPDQEECSGRRWNKLCTLNDSKGSLYSVKFAPAHLGLKLACLGNDGILRLYDALEPSDLRSWTLTSEMKVLSIPPANHLQSDFCLSWCPSRFSPEKLAVSALEQAIIYQRGKDGKLHVAAKLPGHKSLIRSISWAPSIGRWYQLIATGCKDGRIRIFKITEKLSPLASEESLTNSNMFDNSADVDMDAQGRSDSNTEEKAELQSNLQVELLSEHDDHNGEVWSVSWNLTGTILSSAGDDGKVRLWKATYSNEFKCMSVITAQQ
notes: Seh1, S. cerevisiae, endogenous subunit of the SEAC (SEACAT, core); Native protein of the purified complex; six copies in the SEAC; source: endogenous, yeast cells expressing Sea4-TAP; in lysate and co-purified with Sea4-TAP (IgG Dynabeads, TEV elution)
As to B1, the binding result is recorded as “binds”.
